Reference: patent US20100247558A1 (RAMOT AT TEL AVIV UNIVERSITY, published 2010)
“And” between values parts separate entries of the source, which are not always exact repeats. Equal values may be shown once. Where no end group is shown, it is not given here.

Key:
[1] = biological target: T1, gp120451 (gp120 of HIV-1 isolate 451) (HIV-1 isolate 451); test: quantitative ELISA (FIG. 7)
T1 construct: also called soluble monomeric gp120451

CD4 protein = biological target: T2, CD4 protein (UniProt P01730 26-394); test: ELISA: m1 phage captured by anti-M13 antibody, incubated with CD4, probed with anti-CD4 mAb
T2 construct: also called soluble CD4

B1: m1 peptide (phage-displayed) (peptide)
peptide: CDRRDLPQWAKREC
modifications: not fully specified (C-terminus); cysteine pairing not given here; also: fused to N terminus of phage pVIII (mosaic fth1 phage)
notes: Tested as a fusion to protein 8 on filamentous phage (fth1 vector, mosaic phage); 12mer flanked by constant cysteines; not shown: fd phage protein 8 (pVIII) display carrier at the peptide's C end
With B1 the Kd [1] was 69 nM and 69.2 nM and the binding result (CD4 protein) was “no binding”.
